Measurements reported in patent publication US20170066831A1 (Janssen / Centocor, published 2017).

Columns and labels:
[1] = target: T1, human ST2L extracellular domain with C-terminal His6 tag (human, UniProt Q01638 19-328); assay: ProteOn SPR, mAb captured, ST2L-ECD in solution
T1 construct: also called huST2L-ECD; ST2L-ECD
T1 sequence: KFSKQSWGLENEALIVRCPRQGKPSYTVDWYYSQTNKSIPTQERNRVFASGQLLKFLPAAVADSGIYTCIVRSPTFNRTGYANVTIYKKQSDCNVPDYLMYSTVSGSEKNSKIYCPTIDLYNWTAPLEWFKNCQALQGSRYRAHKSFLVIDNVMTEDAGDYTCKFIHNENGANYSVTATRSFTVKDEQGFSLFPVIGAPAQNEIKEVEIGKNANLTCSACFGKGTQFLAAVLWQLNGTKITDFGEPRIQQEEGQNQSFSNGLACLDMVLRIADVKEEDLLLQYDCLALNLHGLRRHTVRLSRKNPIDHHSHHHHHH
Experimental: (§1) The affinities were analyzed by ProteOn. The experiments were performed at 25° C. using ProteOn's PBS-T-E buffer (PBS, 0.005% P20 and 3 mM EDTA) as running buffer. […] Mab capture was followed by injection of ST2L-ECD from 0.024-15 nM (5-fold dilutions) for 4 min (200 μL at 50 μL/min). The dissociation was monitored for 30 minutes for all reaction. Regeneration was performed using two 15 sec pulses of 10 mM glycine pH1.5. The data was fitted to a 1:1 with baseline drift model.
(§2) Association rates for the samples are fast, the langmuir with mass transfer model was used for curve fitting and estimation of Affinity. All of the samples had faster off rates than the parental clone and control Mab. The difference in off rate was the primary contributor to the lower affinity of the HFA variants when compared to the parent antibody.

[2] = target: T2, cynomolgus (Macaca fascicularis) ST2L extracellular domain with C-terminal His6 tag (Macaca fascicularis (cynomolgus), UniProt Q01638 19-321 (human entry)); assay: ProteOn SPR, mAb captured, ST2L-ECD in solution
T2 construct: also called cyno ST2L-ECD; cynoST2L-ECD
T2 chain: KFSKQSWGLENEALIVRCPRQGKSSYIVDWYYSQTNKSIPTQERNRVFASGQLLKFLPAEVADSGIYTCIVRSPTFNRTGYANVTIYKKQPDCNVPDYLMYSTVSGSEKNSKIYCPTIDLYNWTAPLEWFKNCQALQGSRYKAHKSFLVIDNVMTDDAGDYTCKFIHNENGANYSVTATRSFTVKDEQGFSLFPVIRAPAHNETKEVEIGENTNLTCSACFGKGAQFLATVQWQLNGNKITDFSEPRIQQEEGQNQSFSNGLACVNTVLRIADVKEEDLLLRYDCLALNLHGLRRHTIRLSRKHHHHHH
Experimental: as §1, §2

Binder	Kd [1] [nM]	koff [1] [s⁻¹]	kon [1] [M⁻¹ s⁻¹]	Kd [2] [nM]	koff [2] [s⁻¹]	kon [2] [M⁻¹ s⁻¹]
STLM203 (antibody, V domains shown, C2494 HFA mAb: VH STLH194 + VL STLL274 (O12)) VH: EVQLVQSGAEVKKPGATVKISCKVSAFNIKDDYMHWVQQAPGKGLEWMGRIDPAIGNTEYAEKFQGRVTITADTSTDTAYMELSSLRSEDTAVYYCATGDFYAMDYWGQGTLVTVSS VL: DIQMTQSPSSLSASVGDRVTITCITNTDIDDVIHWYQQKPGKAPKLLIYEGNTLRPGVPSRFSGSGSGTDFTLTISSLQPEDFATYYCLQSDNMLTFGQGTKLEIK	0.0473	0.000967	2.04e+07	0.111	0.00656	5.88e+07
STLM200 (antibody, V domains shown, C2494 HFA mAb: VH STLH194 + VL STLL277 (L8)) VH: EVQLVQSGAEVKKPGATVKISCKVSAFNIKDDYMHWVQQAPGKGLEWMGRIDPAIGNTEYAEKFQGRVTITADTSTDTAYMELSSLRSEDTAVYYCATGDFYAMDYWGQGTLVTVSS VL: DIQLTQSPSFLSASVGDRVTITCITNTDIDDVIHWYQQKPGKAPKLLIYEGNTLRPGVPSRFSGSGSGTEFTLTISSLQPEDFATYYCLQSDNMLTFGQGTKLEIK	0.0608	0.00143	2.35e+07	0.134	0.011	8.23e+07
STLM187 (antibody, V domains shown, C2494 HFA mAb: VH STLH195 (IGHV1-24*01) + VL STLL280 (O12b)) VH: QVQLVQSGAEVKKPGASVKVSCKVSAFNIKDDYMHWVRQAPGKGLEWMGRIDPAIGNTEYAPKFQDRVTMTEDTSTDTAYMELSSLRSEDTAVYYCATGDFYAMDYWGQGTLVTVSS VL: DIQMTQSPSSLSASVGDRVTITCITNTDIDDVIHWYQQKPGKAPKLLIYEGNTLRPGVPSRFSGSGSGTDFTLTISSLQPEDFATYYCLQSDNLLTFGQGTKLEIK	0.473	0.0159	3.37e+07	1.1	0.11	1e+08
STLM201 (antibody, V domains shown, C2494 HFA mAb: VH STLH194 + VL STLL276 (L12)) VH: EVQLVQSGAEVKKPGATVKISCKVSAFNIKDDYMHWVQQAPGKGLEWMGRIDPAIGNTEYAEKFQGRVTITADTSTDTAYMELSSLRSEDTAVYYCATGDFYAMDYWGQGTLVTVSS VL: DIQMTQSPSTLSASVGDRVTITCITNTDIDDVIHWYQQKPGKAPKLLIYEGNTLRPGVPSRFSGSGSGTEFTLTISSLQPDDFATYYCLQSDNMLTFGQGTKLEIK	0.0484	0.000852	1.76e+07	0.116	0.0041	3.55e+07
STLM190 (antibody, V domains shown, C2494 HFA mAb: VH STLH195 + VL STLL277 (L8)) VH: QVQLVQSGAEVKKPGASVKVSCKVSAFNIKDDYMHWVRQAPGKGLEWMGRIDPAIGNTEYAPKFQDRVTMTEDTSTDTAYMELSSLRSEDTAVYYCATGDFYAMDYWGQGTLVTVSS VL: DIQLTQSPSFLSASVGDRVTITCITNTDIDDVIHWYQQKPGKAPKLLIYEGNTLRPGVPSRFSGSGSGTEFTLTISSLQPEDFATYYCLQSDNMLTFGQGTKLEIK	0.534	0.0534	1e+08	1.02	0.102	1e+08
STLM197 (antibody, V domains shown, C2494 HFA mAb: VH STLH194 (IGHV1-f*01) + VL STLL280 (O12b)) VH: EVQLVQSGAEVKKPGATVKISCKVSAFNIKDDYMHWVQQAPGKGLEWMGRIDPAIGNTEYAEKFQGRVTITADTSTDTAYMELSSLRSEDTAVYYCATGDFYAMDYWGQGTLVTVSS VL: DIQMTQSPSSLSASVGDRVTITCITNTDIDDVIHWYQQKPGKAPKLLIYEGNTLRPGVPSRFSGSGSGTDFTLTISSLQPEDFATYYCLQSDNLLTFGQGTKLEIK	0.0885	0.00162	1.83e+07	0.232	0.00688	2.97e+07
STLM204 (antibody, V domains shown, C2494 HFA mAb: VH STLH194 + VL STLL273 (A20)) VH: EVQLVQSGAEVKKPGATVKISCKVSAFNIKDDYMHWVQQAPGKGLEWMGRIDPAIGNTEYAEKFQGRVTITADTSTDTAYMELSSLRSEDTAVYYCATGDFYAMDYWGQGTLVTVSS VL: DIQMTQSPSSLSASVGDRVTITCITNTDIDDVIHWYQQKPGKVPKLLIYEGNTLRPGVPSRFSGSGSGTDFTLTISSLQPEDVATYYCLQSDNMLTFGQGTKLEIK	0.0813	0.00241	2.97e+07	0.205	0.0205	1e+08
STLM191 (antibody, V domains shown, C2494 HFA mAb: VH STLH195 + VL STLL276 (L12)) VH: QVQLVQSGAEVKKPGASVKVSCKVSAFNIKDDYMHWVRQAPGKGLEWMGRIDPAIGNTEYAPKFQDRVTMTEDTSTDTAYMELSSLRSEDTAVYYCATGDFYAMDYWGQGTLVTVSS VL: DIQMTQSPSTLSASVGDRVTITCITNTDIDDVIHWYQQKPGKAPKLLIYEGNTLRPGVPSRFSGSGSGTEFTLTISSLQPDDFATYYCLQSDNMLTFGQGTKLEIK	0.292	0.0247	8.46e+07	0.666	0.0666	1e+08
STLM193 (antibody, V domains shown, C2494 HFA mAb: VH STLH195 + VL STLL274 (O12)) VH: QVQLVQSGAEVKKPGASVKVSCKVSAFNIKDDYMHWVRQAPGKGLEWMGRIDPAIGNTEYAPKFQDRVTMTEDTSTDTAYMELSSLRSEDTAVYYCATGDFYAMDYWGQGTLVTVSS VL: DIQMTQSPSSLSASVGDRVTITCITNTDIDDVIHWYQQKPGKAPKLLIYEGNTLRPGVPSRFSGSGSGTDFTLTISSLQPEDFATYYCLQSDNMLTFGQGTKLEIK	0.267	0.0127	4.77e+07	0.932	0.0932	1e+08
STLM202 (antibody, V domains shown, C2494 HFA mAb: VH STLH194 + VL STLL275 (L5)) VH: EVQLVQSGAEVKKPGATVKISCKVSAFNIKDDYMHWVQQAPGKGLEWMGRIDPAIGNTEYAEKFQGRVTITADTSTDTAYMELSSLRSEDTAVYYCATGDFYAMDYWGQGTLVTVSS VL: DIQMTQSPSSVSASVGDRVTITCITNTDIDDVIHWYQQKPGKAPKLLIYEGNTLRPGVPSRFSGSGSGTDFTLTISSLQPEDFATYYCLQSDNMLTFGQGTKLEIK	0.0529	0.00119	2.24e+07	0.134	0.0104	7.75e+07
STLM194 (antibody, V domains shown, C2494 HFA mAb: VH STLH195 + VL STLL273 (A20)) VH: QVQLVQSGAEVKKPGASVKVSCKVSAFNIKDDYMHWVRQAPGKGLEWMGRIDPAIGNTEYAPKFQDRVTMTEDTSTDTAYMELSSLRSEDTAVYYCATGDFYAMDYWGQGTLVTVSS VL: DIQMTQSPSSLSASVGDRVTITCITNTDIDDVIHWYQQKPGKVPKLLIYEGNTLRPGVPSRFSGSGSGTDFTLTISSLQPEDVATYYCLQSDNMLTFGQGTKLEIK	0.703	0.0703	1e+08	1.9	0.19	1e+08
STLM195 (antibody, V domains shown, C2494 HFA mAb: VH STLH195 + VL STLL272 (O18)) VH: QVQLVQSGAEVKKPGASVKVSCKVSAFNIKDDYMHWVRQAPGKGLEWMGRIDPAIGNTEYAPKFQDRVTMTEDTSTDTAYMELSSLRSEDTAVYYCATGDFYAMDYWGQGTLVTVSS VL: DIQMTQSPSSLSASVGDRVTITCITNTDIDDVIHWYQQKPGKAPKLLIYEGNTLRPGVPSRFSGSGSGTDFTFTISSLQPEDIATYYCLQSDNMLTFGQGTKLEIK	0.271	0.00673	2.49e+07	0.719	0.0719	1e+08
STLM192 (antibody, V domains shown, C2494 HFA mAb: VH STLH195 + VL STLL275 (L5)) VH: QVQLVQSGAEVKKPGASVKVSCKVSAFNIKDDYMHWVRQAPGKGLEWMGRIDPAIGNTEYAPKFQDRVTMTEDTSTDTAYMELSSLRSEDTAVYYCATGDFYAMDYWGQGTLVTVSS VL: DIQMTQSPSSVSASVGDRVTITCITNTDIDDVIHWYQQKPGKAPKLLIYEGNTLRPGVPSRFSGSGSGTDFTLTISSLQPEDFATYYCLQSDNMLTFGQGTKLEIK	0.42	0.00885	2.11e+07	0.999	0.0999	1e+08
